# From publication PMC6033465
# Experiments:
# human lysozyme c (human) = human lysozyme c (human) (UniProt P61626)
# [1] = biological target: recombinant wild type SliC (surface-exposed lysozyme inhibitor of c-type lysozyme, NGO1063) of N. gonorrhoeae FA1090 (N. gonorrhoeae FA1090); test: BLI; biotinylated rSliC (20 ug/mL, 10 min) immobilised on streptavidin sensors, increasing concentrations of HL in solution; Kinetic Buffer (20 mM HEPES pH 8, 15 mM NaCl, 0.002 Tween 20, 0.1 mg/mL BSA); association and dissociation 600 s; 2:1 (Heterogeneous Ligand) model; three biological …; OctetRed 96
Molecule,"IC50 of SliC against the lytic activity of HL towards M. lysodeikticus peptidoglycan (fluorescein-labeled cell walls; 2.5 μM HL, 0-10 μM SliC) (human lysozyme c (human))",Kd [1]
"recombinant wild type SliC (surface-exposed lysozyme inhibitor of c-type lysozyme, NGO1063) of N. gonorrhoeae FA1090 (natural protein)",1.85 µM,–
human lysozyme c (enzyme) KVFERCELARTLKRLGMDGYRGISLANWMCLAKWESGYNTRATNYNAGDRSTDYGIFQINSRYWCNDGKTPGAVNACHLSCSALLQDNIADAVACAKRVVRDPQGIRAWVAWRNRCQNRDVRQYVQGCGV,–,9.2 µM
